According to paper PMC5805349, “Recombinant expression, purification and biochemical characterization of kievitone hydratase from Nectria haematococca” (PLoS ONE, 2018):

Legend:
[1] = test system: COc1cc(O)c(CC=C(C)C)c(O)c1C(=O)/C=C/c1ccc(O)cc1; test: purified protein; conditions: 50 mM sodium citrate, pH 6.0, 35°C, 2% v/v ethanol, 0.05 mg/mL enzyme, apparent because of low XN solubility, water is co-substrate
[2] = molecular target: T1, FsKHS (Fusarium phaseoli, UniProt Q00870); test: HPLC conversion assay with P. pastoris culture supernatant; format: biochemical; conditions: 2 mM kievitone, 35°C, culture supernatant of P. pastoris expressing FsKHS, mere turnover
T1 construct: gene khs; 19-residue signal peptide cleaved between Ala19 and Ser20; C-terminal His10 tag
T1 sequence (Q00870 20-350): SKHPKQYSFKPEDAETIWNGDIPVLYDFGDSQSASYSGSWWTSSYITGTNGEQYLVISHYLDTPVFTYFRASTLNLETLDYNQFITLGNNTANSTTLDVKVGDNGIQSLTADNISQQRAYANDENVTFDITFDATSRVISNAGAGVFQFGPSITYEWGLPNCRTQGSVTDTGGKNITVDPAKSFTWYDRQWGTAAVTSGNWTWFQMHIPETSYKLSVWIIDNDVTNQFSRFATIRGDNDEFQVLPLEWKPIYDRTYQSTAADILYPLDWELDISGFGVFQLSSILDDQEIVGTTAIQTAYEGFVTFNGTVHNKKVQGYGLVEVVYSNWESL

Compound	Km [1] [µM]	kcat [1] [s⁻¹]	% substrate converted in 3 h [2]
NhKHS (Fusarium vanettenii 77-13-4)	980 ± 130	4.77 ± 0.33	
CC(C)=CCc1c(O)cc(O)c2c1OCC(c1ccc(O)cc1O)C2=O (stereo not drawn) [KV, kievitone]			~ 89%
